From patent US11833215B2, “CKIT antibody drug conjugates” (Novartis AG, priority 2014, dated 2023)
“Also recorded” adds a separate entry of the source.

Legend:
Human cKIT D1-D3 ECD = biological target: T1, Human cKIT D1-D3 ECD (Homo sapiens, UniProt P10721, N130S/N145S); experiment: crystal structure of cKIT ECD/NEG085 Fab complex
T1 construct: protein was made with residues Q26-G311; made in house
Procedure: Human cKIT (accession code NM_000222 domain 1 (D1)-domain 3 (D3) extracellular domain (ECD) protein was made with residues Q26-G311 ([…], N145S- these changes results in glycosylation deficiency, in order to express the protein in a glycan free form). Equal molar ratios of human cKIT D1-D3 ECD and NEG085 Fab were mixed and subjected to a final gel filtration step equilibrated with 20 mM Tris-HCl pH 7.5 and 100 mM NaCl, and concentrated to 20 mg/ml. Trypsin was added to the protein complex crystallization sample to create a 1:100 w/w dilution. The protease/sample mixture was incubated at room temperature for 30 minutes before setting up the crystallization experiment.
Diffracting crystals of the cKIT ECD/NEG085 Fab complex were obtained directly from Protein Complex Suite F5 (0.1M NaCl, 0.1M Tris pH 8.0, 8% PEG 20 k; Qiagen) at 4° C. and, after minor optimization, led to crystals diffracting to 5 Å in-house. […]
Data were collected on a single crystal cooled to 100K using an ADSC QUANTUM 315 detector (ADSC, Poway CA) and synchrotron radiation (λ=1.0000 Å) at the beam line 5.0.2 of the Advanced Light Source. […] The crystal contains four copies of the cKIT ECD/NEG085 Fab complex in the asymmetric unit with a calculated solvent content of 66%. […]

primary human mast cells = experiment: mast cell apoptosis (Caspase-Glo 3/7); type: cell-based; conditions: 0.05-100 nM, 1.6 nM rhSCF, 48 h
Procedure: Primary human mast cells were cultured from peripheral human blood according to the methods described by Saito et al., Nature Protocols 2006; 1(4):2178-2183. Mast cells, which had been in liquid culture for a minimum of one week, were incubated with increasing concentrations (0.05-100 nM) of the anti-human cKIT Abs, NEG085 and 20376, or an isotype control IgG, in the presence of 1.6 nM rhSCF (Genscript, Cat #Z00400, Piscataway, NJ), for 48 h at 37° C. before the addition of the Caspase-Glo® 3/7 reagent (Promega, Cat #G8093, Madison, WI) to measure apoptosis. Following 30 min incubation at room temperature, luminescence was recorded on the BioTek® Synergy plate reader (BioTek, Winooski, VT).

rat cKIT = experiment: SPR (Biacore) affinity measurement; type: binding; conditions: 25° C., 1:1 model
Procedure: (§1) Affinity of the antibodies to cKIT species orthologues and also to cKIT was determined using SPR technology using a Biacore® 2000 instrument (GE Healthcare, Pittsburgh, PA) and with CM5 sensor chips.
(§2) Briefly, HBS-P (0.01 M HEPES, pH 7.4, 0.15 M NaCl, 0.005% Surfactant P20) supplemented with 2% Odyssey® blocking buffer (Li-Cor Biosciences, Lincoln, NE) was used as the running buffer for all the experiments. The immobilization level and analyte interactions were measured by response unit (RU). Pilot experiments were performed to test and confirm the feasibility of the immobilization of the anti-human Fc antibody (Catalog number BR100839, GE Healthcare, Pittsburgh, PA) and the capture of the test antibodies.
(§3) For kinetic measurements, the experiments were performed in which the antibodies were captured to the sensor chip surface via the immobilized anti-human Fc antibody and the ability of the cKIT proteins to bind in free solution was determined. Briefly, 25 μg/ml of anti-human Fc antibody at pH 5 was immobilized on a CM5 sensor chip through amine coupling at flow rate of 5 μl/minute on all two flow cells to reach 10,500 RUs. 0.1-1 μg/ml of test antibodies were then injected at 10 μl/min for 1 minute. Captured levels of the antibodies were generally kept below 200 RUs. Subsequently, 3.125 −50 nM of cKIT receptor extracellular domains (ECD) were diluted in a 2-fold series and injected at a flow rate of 40 μl/min for 3 min over both reference and test flow cells. Table of tested ECDs is listed below (Table 6). Dissociation of the binding was followed for 10 min. After each injection cycle, the chip surface was regenerated with 3 M MgCl2 at 10 μl/min for 30 seconds.

human cKIT = biological target: T2, human cKIT (Homo sapiens, UniProt P10721); experiment: SPR (Biacore) affinity measurement; type: binding; conditions: 25° C., 1:1 model
T2 construct: Human cKIT tr. variant 2 , residues 26-520-TAG; made in house; host or cells: HEK293 derived cell line 293FS, transient transfection
Procedure: as §1, §2, §3

T1 sequence (P10721 26-311 N130S/N145S limits assumed): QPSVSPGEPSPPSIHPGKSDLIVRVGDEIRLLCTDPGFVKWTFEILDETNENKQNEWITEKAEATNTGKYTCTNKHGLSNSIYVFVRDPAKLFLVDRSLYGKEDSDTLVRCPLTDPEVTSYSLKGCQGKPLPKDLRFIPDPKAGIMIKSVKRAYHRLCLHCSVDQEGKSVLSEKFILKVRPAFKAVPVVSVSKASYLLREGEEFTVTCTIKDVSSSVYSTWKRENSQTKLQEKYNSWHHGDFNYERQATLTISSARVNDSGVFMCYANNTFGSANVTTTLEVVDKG
rat cKIT, sequence (as listed by the source): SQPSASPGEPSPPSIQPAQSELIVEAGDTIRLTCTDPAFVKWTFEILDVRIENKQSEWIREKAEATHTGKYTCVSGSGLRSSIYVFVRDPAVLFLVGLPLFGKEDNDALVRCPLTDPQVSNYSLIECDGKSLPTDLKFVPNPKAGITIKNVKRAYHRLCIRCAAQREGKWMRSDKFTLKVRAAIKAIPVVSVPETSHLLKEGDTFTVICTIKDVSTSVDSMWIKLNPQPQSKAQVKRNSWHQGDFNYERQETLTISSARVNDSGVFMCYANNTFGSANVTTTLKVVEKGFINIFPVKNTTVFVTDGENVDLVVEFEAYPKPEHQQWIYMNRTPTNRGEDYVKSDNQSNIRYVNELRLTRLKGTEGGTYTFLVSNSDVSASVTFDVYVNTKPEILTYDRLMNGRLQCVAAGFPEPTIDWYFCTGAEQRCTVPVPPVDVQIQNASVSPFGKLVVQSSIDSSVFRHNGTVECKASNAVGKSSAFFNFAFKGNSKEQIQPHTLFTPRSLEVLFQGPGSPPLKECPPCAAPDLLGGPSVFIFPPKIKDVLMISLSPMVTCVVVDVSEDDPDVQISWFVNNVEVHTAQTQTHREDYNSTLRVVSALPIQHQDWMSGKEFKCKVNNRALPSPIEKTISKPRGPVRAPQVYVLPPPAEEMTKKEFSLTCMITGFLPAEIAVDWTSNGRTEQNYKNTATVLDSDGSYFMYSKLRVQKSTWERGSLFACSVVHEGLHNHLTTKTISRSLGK
T2 sequence (P10721 with tags, fused parts or gaps isoform P10721-2): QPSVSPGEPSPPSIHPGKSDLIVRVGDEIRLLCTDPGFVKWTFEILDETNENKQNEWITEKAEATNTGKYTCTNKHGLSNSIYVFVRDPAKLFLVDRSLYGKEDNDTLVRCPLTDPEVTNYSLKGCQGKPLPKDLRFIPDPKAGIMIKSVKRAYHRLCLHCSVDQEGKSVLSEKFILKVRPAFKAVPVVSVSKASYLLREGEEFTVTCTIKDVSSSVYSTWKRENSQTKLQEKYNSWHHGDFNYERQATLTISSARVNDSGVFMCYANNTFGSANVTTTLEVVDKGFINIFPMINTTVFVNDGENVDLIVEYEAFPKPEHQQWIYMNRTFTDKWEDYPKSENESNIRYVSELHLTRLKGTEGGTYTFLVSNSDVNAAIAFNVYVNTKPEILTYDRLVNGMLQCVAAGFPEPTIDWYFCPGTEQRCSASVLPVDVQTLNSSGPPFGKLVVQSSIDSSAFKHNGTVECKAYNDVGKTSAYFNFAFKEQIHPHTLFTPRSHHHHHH

B1: NEG085: anti-cKIT antibody of Table 3, VH SEQ ID NO 82, VL SEQ ID NO 91 (antibody, listed as Homo sapiens, V domains shown)
VH: EVQLVESGGGLVQPGGSLRLSCAASGFAFSGYYMAWVRQAPGKGLEWVANINYPGSSTYYLDSVKGRFTISRDNAKNSLYLQMNSLRAEDTAVYYCARGDYYGTTYWYFDVWGQGTTVTVSS
VL: DIQMTQSPSSLSASVGDRVTITCRASQSISSYLNWYQQKPGKAPKLLIYYTSRLQSGVPSRFSGSGSGTDFTLTISSLQPEDFATYYCQQGRRLWSFGGGTKVEIK
Human cKIT D1-D3 ECD
  competition with SCF for binding to cKIT (superposition of structures): appear to not compete
Human cKIT D1-D3 ECD; total, H and L chain
  solvent-accessible surface area buried by NEG085/cKIT interface: ~1890 Å2
Primary human mast cells
  apoptosis of primary human mast cells: do not mediate primary human mast cell apoptosis; also recorded: do not lead to apoptosis
Rat cKIT
  Affinity to rat cKIT (nM): Not reactive
Human cKIT
  Affinity human cKIT (nM): nanomolar level
